The target of assay [1] is AT1G22950.1 ICU11 (Arabidopsis thaliana) (UniProt Q3ED68). The experiment in a line: IP-MS rep 2.
Assay [2] has as its target AT3G10480.3 NAC050 (Arabidopsis thaliana) (UniProt Q9SQX9). The assay is described as follows: IP-MS rep 2.
In assay [3] the target is AT3G18210.1 CP2 (Arabidopsis thaliana) (UniProt P0DO23). The assay is described as follows: IP-MS rep 2.
Assay [4] concerns the target AT5G11530.1 EMF1 (Arabidopsis thaliana) (UniProt Q9LYD9). The assay is described as follows: IP-MS rep 2.
The target of assay [5] is AT5G58230.1 MSI1 (Arabidopsis thaliana) (UniProt O22467). The assay is described as follows: IP-MS rep 2.
Assay [6] has as its target T1, AT5G67580.1 TRB2 (Arabidopsis thaliana) (UniProt Q9FJW5).
T1 sequence: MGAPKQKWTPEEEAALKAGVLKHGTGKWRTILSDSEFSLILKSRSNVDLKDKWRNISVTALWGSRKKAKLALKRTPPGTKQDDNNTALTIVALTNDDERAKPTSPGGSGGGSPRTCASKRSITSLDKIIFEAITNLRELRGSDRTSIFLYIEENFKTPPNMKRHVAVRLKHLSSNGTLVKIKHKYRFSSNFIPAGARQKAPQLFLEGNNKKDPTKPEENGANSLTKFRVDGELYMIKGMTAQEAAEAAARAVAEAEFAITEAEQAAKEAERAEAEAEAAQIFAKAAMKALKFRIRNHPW
The experiment in a line: IP-MS rep 2.

The target of assay [7] is AT3G20740.1 FIE (Arabidopsis thaliana) (UniProt Q9LT47). The experiment in a line: IP-MS rep 2.
Assay [8] concerns the target AT3G10490.2 NAC052 (Arabidopsis thaliana) (UniProt Q9SQY0). The experiment in a line: IP-MS rep 2.
In assay [9] the target is AT1G22950.1 ICU11 (Arabidopsis thaliana) (UniProt Q3ED68). The experiment in a line: X-link IP-MS.
Assay [10] has as its target AT3G10480.3 NAC050 (Arabidopsis thaliana) (UniProt Q9SQX9). The assay is described as follows: X-link IP-MS.
For assay [11], the target named is AT3G18210.1 CP2 (Arabidopsis thaliana) (UniProt P0DO23). The assay is described as follows: X-link IP-MS.
The target in assay [12] is AT5G11530.1 EMF1 (Arabidopsis thaliana) (UniProt Q9LYD9). The experiment in a line: X-link IP-MS.
Assay [13] addresses AT5G58230.1 MSI1 (Arabidopsis thaliana) (UniProt O22467). The assay is described as follows: X-link IP-MS.
In assay [14] the target is T1, AT5G67580.1 TRB2 (Arabidopsis thaliana). The experiment in a line: X-link IP-MS.
Assay [15] addresses AT3G20740.1 FIE (Arabidopsis thaliana) (UniProt Q9LT47). The experiment in a line: X-link IP-MS.
The target of assay [16] is AT3G10490.2 NAC052 (Arabidopsis thaliana) (UniProt Q9SQY0). The experiment in a line: X-link IP-MS.
The target in assay [17] is AT1G22950.1 ICU11 (Arabidopsis thaliana) (UniProt Q3ED68). The assay is described as follows: IP-MS rep 1.
Assay [18] concerns the target AT3G10480.3 NAC050 (Arabidopsis thaliana) (UniProt Q9SQX9). The assay is described as follows: IP-MS rep 1.
The target of assay [19] is AT3G18210.1 CP2 (Arabidopsis thaliana) (UniProt P0DO23). The experiment in a line: IP-MS rep 1.
Assay [20] addresses AT5G11530.1 EMF1 (Arabidopsis thaliana) (UniProt Q9LYD9). The experiment in a line: IP-MS rep 1.
Assay [21] has as its target AT5G58230.1 MSI1 (Arabidopsis thaliana) (UniProt O22467). The assay is described as follows: IP-MS rep 1.
Assay [22] deals with T1, AT5G67580.1 TRB2 (Arabidopsis thaliana). The assay is described as follows: IP-MS rep 1.
The target of assay [23] is AT3G20740.1 FIE (Arabidopsis thaliana) (UniProt Q9LT47). The assay is described as follows: IP-MS rep 1.
Assay [24] has as its target AT3G10490.2 NAC052 (Arabidopsis thaliana) (UniProt Q9SQY0). The assay is described as follows: IP-MS rep 1.

Chain of AT3G18210.1 CP2 (Arabidopsis thaliana) (P0DO23 whole entry): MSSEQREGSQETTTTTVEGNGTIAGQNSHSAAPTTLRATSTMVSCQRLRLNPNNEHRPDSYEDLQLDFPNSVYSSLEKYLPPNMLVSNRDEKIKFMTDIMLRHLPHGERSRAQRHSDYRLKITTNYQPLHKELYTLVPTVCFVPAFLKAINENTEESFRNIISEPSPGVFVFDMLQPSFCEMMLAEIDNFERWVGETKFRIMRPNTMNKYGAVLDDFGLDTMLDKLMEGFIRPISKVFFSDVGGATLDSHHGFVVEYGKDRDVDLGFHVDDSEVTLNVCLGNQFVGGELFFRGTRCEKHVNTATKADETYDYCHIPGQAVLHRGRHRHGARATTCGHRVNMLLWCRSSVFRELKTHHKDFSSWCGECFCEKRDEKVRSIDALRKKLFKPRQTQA
Chain of AT3G10490.2 NAC052 (Arabidopsis thaliana) (Q9SQY0 whole entry): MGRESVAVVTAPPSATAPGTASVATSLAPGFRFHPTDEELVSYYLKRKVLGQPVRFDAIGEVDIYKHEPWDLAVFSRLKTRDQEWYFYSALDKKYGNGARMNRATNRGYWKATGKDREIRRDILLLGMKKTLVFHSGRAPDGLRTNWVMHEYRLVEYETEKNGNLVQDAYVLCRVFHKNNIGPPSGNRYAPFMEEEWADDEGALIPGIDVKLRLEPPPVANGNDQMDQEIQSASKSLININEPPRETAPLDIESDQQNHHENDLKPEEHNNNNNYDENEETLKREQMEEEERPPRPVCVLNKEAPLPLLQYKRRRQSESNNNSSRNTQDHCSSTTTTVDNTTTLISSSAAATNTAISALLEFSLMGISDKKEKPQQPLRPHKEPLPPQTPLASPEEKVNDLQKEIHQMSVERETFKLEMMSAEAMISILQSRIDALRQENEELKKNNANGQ
Chain of AT3G10480.3 NAC050 (Arabidopsis thaliana) (Q9SQX9 whole entry): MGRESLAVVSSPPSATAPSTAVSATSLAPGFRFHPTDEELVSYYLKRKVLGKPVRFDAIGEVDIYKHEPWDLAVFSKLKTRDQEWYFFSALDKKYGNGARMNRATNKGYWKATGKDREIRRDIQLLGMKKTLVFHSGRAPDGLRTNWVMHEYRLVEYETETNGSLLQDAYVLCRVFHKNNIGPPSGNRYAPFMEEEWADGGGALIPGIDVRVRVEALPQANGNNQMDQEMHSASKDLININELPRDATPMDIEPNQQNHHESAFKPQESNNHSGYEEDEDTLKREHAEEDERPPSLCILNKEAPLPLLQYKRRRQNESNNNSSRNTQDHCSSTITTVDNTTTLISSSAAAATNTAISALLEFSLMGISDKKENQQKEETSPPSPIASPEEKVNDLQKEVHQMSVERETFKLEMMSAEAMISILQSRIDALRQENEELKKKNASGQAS
Chain of AT3G20740.1 FIE (Arabidopsis thaliana) (Q9LT47 whole entry): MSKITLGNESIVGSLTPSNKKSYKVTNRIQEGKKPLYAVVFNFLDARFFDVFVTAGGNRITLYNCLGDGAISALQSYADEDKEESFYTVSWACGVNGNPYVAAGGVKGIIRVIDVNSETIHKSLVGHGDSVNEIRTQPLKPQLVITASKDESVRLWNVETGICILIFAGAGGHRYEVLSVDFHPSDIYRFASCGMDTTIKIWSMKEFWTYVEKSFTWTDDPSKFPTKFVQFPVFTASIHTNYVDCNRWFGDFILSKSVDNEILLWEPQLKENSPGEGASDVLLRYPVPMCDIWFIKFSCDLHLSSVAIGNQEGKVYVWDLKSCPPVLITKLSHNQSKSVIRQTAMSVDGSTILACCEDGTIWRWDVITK
Chain of AT5G58230.1 MSI1 (Arabidopsis thaliana) (O22467 whole entry): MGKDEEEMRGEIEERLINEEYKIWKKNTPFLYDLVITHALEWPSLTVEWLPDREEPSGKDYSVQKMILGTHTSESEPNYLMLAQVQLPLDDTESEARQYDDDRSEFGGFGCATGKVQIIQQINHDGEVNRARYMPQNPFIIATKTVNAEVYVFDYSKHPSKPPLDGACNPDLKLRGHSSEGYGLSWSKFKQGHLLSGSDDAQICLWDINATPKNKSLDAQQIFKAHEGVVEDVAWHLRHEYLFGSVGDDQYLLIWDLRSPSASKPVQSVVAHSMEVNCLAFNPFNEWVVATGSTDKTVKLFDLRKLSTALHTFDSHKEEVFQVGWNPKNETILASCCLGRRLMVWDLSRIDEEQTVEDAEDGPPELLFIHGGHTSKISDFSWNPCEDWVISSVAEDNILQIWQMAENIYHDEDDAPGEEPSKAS
Chain of AT5G11530.1 EMF1 (Arabidopsis thaliana) (Q9LYD9 whole entry): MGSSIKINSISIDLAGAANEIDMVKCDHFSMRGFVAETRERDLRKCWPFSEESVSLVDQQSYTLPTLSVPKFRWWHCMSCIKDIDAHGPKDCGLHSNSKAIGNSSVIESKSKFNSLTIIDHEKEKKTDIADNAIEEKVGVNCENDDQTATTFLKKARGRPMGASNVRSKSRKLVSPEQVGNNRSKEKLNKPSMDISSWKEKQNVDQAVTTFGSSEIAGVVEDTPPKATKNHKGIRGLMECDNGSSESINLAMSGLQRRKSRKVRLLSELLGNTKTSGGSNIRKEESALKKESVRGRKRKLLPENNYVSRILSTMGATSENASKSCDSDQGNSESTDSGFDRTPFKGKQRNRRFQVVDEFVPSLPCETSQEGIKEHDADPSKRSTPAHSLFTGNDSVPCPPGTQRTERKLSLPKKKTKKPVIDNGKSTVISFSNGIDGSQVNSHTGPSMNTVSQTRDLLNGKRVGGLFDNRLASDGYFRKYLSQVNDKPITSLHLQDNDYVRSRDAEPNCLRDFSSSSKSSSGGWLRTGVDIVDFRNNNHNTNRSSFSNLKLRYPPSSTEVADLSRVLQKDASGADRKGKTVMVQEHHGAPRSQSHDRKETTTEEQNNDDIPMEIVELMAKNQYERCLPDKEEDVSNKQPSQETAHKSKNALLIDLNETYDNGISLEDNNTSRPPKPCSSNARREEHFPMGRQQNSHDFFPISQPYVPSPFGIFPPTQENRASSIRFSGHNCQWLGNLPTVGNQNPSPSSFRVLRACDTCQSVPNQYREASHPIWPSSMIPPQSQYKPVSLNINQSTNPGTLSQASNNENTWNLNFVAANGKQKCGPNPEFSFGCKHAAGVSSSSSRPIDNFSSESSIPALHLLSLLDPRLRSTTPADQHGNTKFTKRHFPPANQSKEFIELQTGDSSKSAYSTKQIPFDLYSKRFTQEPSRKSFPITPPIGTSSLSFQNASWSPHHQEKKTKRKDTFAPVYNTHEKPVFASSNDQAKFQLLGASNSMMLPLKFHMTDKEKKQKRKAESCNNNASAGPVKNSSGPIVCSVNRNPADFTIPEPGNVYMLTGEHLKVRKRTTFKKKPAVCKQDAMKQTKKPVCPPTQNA
Chain of AT1G22950.1 ICU11 (Arabidopsis thaliana) (Q3ED68 whole entry): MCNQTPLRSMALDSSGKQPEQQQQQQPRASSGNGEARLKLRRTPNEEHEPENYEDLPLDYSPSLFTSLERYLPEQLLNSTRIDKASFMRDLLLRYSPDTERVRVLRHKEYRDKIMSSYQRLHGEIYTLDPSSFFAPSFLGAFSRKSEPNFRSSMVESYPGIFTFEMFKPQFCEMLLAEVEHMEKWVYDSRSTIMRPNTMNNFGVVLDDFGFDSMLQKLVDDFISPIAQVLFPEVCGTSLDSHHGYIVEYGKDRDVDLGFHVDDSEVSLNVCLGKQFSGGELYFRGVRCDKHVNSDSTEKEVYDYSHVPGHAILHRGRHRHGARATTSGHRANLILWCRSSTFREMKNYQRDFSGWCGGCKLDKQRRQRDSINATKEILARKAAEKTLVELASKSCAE

In the case of FLAG-TRB1 (from UniProt Q8VWK4 1-300), the IP-MS count worked out at 79 in assay [1]; 35 in [2]; 17 in assay [3]; 2 in assay [4]; 12 in assay [5]; 0 in assay [6]. The IP-MS count in assay [7] was found to be 3; in assay [8], 103; in assay [9], 27; in assay [10] it was 40; in assay [11] it was 11; in assay [12] it was 11. The IP-MS count amounted to 12 in [13]; 2 in assay [14]; 5 in assay [15]; 55 in assay [16]; 75 in assay [17]; 33 in assay [18]. The IP-MS count in [19] is 13; in assay [20] it was 3; in assay [21], 11; in [22], 0; in assay [23] it was 1; in [24], 103.

These data come from patent US20250042956A1.
